From patent publication CN112341541A (INST FOR VIRAL DISEASE CONTROL AND PREVENTION CHINESE …, dated 2021)

Target: T1, 新型冠状病毒S1蛋白 (纯化) (SARS-CoV-2, UniProt P0DTC2 14-685)
T1 construct: domain: S1
Assay: SPR, BIAcore 8000, purified S1 protein coupled to the chip, 1:1 binding fit

B1: 人源抗新冠病毒中和性抗体nCoV-163 全抗体IgG (antibody, V domains shown)
VH: EVQLVESGGGLVQPGGSLRLSCEASEIIVNRNYMNWVRQAPGKGLEWVSIIYPGGSTFYADSVKGRFTISRDNSKNTMYLQMNSLRAEDTAVYYCARSYGDFYVDFWGQGTLVTVSS
VL: EIVLTQSPVTLSLSPGERATLSCRASQSVSSSYLAWYQQKPGQAPRLLIYGASSRATGIPDRFSGSGSGTDFTLTISRLEPEDFAVYYCQQHGRTFGQGTKVEIKR
notes: also called nCoV-163号抗体
Kd: < 4.88 pM
